Experimental data as given in US7648964B2, “Use of lacritin in promoting ocular cell survival” (University of Virginia Patent Foundation, priority 2004, dated 2010).

Columns and labels:
[1] = tested on: Leydig (TM4) cells; assay: 3H-thymidine uptake mitogenesis assay; type: cell-based, mouse
Procedure: (§1) For phosphotyrosine blotting and mitogenesis assays, cells in serum-containing media were seeded overnight in 24-well plates at a density of 0.5×10^5 cells/mm^2 corresponding to 20-30% confluency after cell attachment, incubated in serum-free media without supplements for 24 h (phosphotyrosine) or washed with serum-free media without supplements three times (mitogenesis) and incubated with lacritin (1-1000 nM), or positive controls EGF (1.6 nM) and 10% fetal bovine serum, or negative controls bovine serum albumin or no additive in serum-free media without supplements for the indicated times (phosphotyrosine) or 30 h (mitogenesis). […] After washing, bound antibodies were detected with peroxidase-labeled secondary antibody and ECL. […] Incorporation was stopped with ice-cold phosphate buffered saline and followed by addition of cold and then room temperature trichloracetic acid (10%) for 10 min each, washing of cells with phosphate buffered saline, solubilization with 1 N sodium hydroxide, neutralization with 1 N hydrochloric acid, addition of scintillation fluid and then quantitation in a scintillation counter. […] Seventy-two hours post-transfection, mitogenesis was assessed by co-addition of 10 […] lacritin and [^3H]-thymidine (2 mCi/ml) (Amersham, Piscataway N.J.) for 24 hrs. […]

[2] = tested on: Sertoli (TM3) cells; assay: 3H-thymidine uptake mitogenesis assay; type: cell-based, mouse
Procedure: as §1

[3] = tested on: rat lacrimal acinar cells; assay: Secretion by freshly isolated rat lacrimal acinar cells (peroxidase assay); type: cell-based
Procedure: Freshly isolated rat lacrimal acinar cells, and HSG (human salivary gland) ductal and HCE (human corneal epithelial) cell lines were used to study lacritin function. For secretion studies, rat acinar cells were plated serum-free overnight on wells co-coated with 0.05 μM laminin 1 (to ensure adhesion) and 0 to 20 μM lacritin, or alternatively with laminin-1 (0.05 μM) and treated the next day with serum-free medium containing 0 to 162 ng/ml of soluble lacritin for four hours. Unstimulated and stimulated (carbachol 10^−4 M/VIP 10^−8 M) secretions were then collected, assessed (peroxidase assay) and normalized to μg cellular DNA. To study tyrosine phosphorylation, overnight serum-free cultures of both rat lacrimal acinar and HSG cells were washed and treated with 10 ng/ml of soluble lacritin for 0.5, 2.5, 10, and 30 minutes. […] Using an inverted Zeiss 510 LSM for visualization, 50 second baseline images were first recorded. While the laser was running, lacritin was added (final concentration 4 and 40 ng/ml) and the response continually monitored every 786 msec for a minimum of 200 sec.
Lacritin function of three types of epithelial cells was assessed in serum-free cultures of: 1) lacrimal acinar; 2) salivary ductal; and 3) corneal epithelial cells using secretion (acinar), proliferation (ductal), tyrosine phosphorylation (acinar, ductal) and calcium signaling (corneal epithelial) assays. […]

[4] = tested on: bcl-2; assay: Antibody array screen, salivary ductal cells; type: cell-based, human; details: lacritin 10 ng/ml, 1 minute; tyrosine phosphorylation as gauge
Procedure: (§2) Lacritin's function in cell survival was first assessed in an antibody array screen. Serum-free cultures of salivary ductal cells were treated either with recombinant lacritin at 10 ng/ml or an equal volume of 1×PBS (dialysis medium for recombinant lacritin) for 1 minute.

[5] = tested on: FAS/APO-1; assay: Antibody array screen, salivary ductal cells; type: cell-based, human; details: lacritin 10 ng/ml, 1 minute; tyrosine phosphorylation as gauge
Procedure: as §2

[6] = tested on: RelA (p65); assay: Nuclear translocation of NF-kappaB subunit RelA (p65) in HSG cells; type: cell-based, human
Excerpt: Nuclear translocation of this transcription factor has also been observed after lacritin treatment. Very little RelA was initially observed in the nuclear compartment in resting HSG cells.

[7] = tested on: human submandibular ductal ('HSG') cells; assay: HSG ductal cell number in serum-free medium after four days; type: cell-based; details: BSA 10 ng/ml control
Procedure: FIGS. 2A and 2B represent lacritin-induced proliferation and tyrosine phosphorylation. FIG. 2A is a graphic representation of the number of human salivary gland (HSG) cells was determined four days after administering various amounts of lacritin (0 to 10 ng/ml of lacritin) to HSG cells in serum-free medium. FIG. 2B is a bar graph representing the proliferation of HSG cells upon administration of BSA (lane 1; 10 ng/ml) or serum (lane 2; 10%) was added for the same period of time. All experiments were performed on laminin-1-(0.05 μM) coated wells.
Quiescent human submandibular ductal (‘HSG’) cells were cultured in serum-free media containing increasing amounts of lacritin and cell proliferation was studied.

B1: lacritin: recombinant human lacritin from E. coli; mature 119 residue fragment (SEQ ID NO:10) of native lacritin SEQ ID NO:4 (protein, listed as Homo sapiens)
chain: EDASSDSTGADPAQEAGTSKPNEEISGPAEPASPPETTTTAQETSAAAVQGTAKVTSSRQELNPLKSIVEKSILLTEQALAKAGKGMHGGVPGGKQFIENGSEFAQKLLKKFSLLKPWA
**Q.** B1 was tested. Which mitogenesis [1] did it give?
**A.** not mitogenic

**Q.** And the mitogenesis [2]?
**A.** not mitogenic

**Q.** And the stimulated secretory pathways ([3]; activated by agonists carbachol and VIP)?
**A.** no effect

**Q.** And the unstimulated secretion ([3]; coated and soluble lacritin, serum-free)?
**A.** enhanced unstimulated secretion in a dose-dependent manner

**Q.** What about the “increase in bcl-2 tyrosine phosphorylation” value [4] of the same molecule?
**A.** 11%

**Q.** And the “change in FAS/APO-1 levels” value [5]?
**A.** −81%

**Q.** What about the “nuclear RelA at 4 hours” value ([6]; 4 hours after initial contact with lacritin) of the same molecule?
**A.** high level of RelA was still observed

**Q.** And the “time of peak nuclear RelA” value ([6]; lacritin treatment)?
**A.** between 15 minutes to 1 hour

**Q.** What about the “time to detectable RelA in nucleus” value ([6]; lacritin treatment) of the same molecule?
**A.** 1 min

**Q.** What about the “ductal cell number relative to BSA negative control” value [7] of the same molecule?
**A.** more than twofold
